# Columns and labels:
# HLA-A*31:01 = test: IEDB peptide-MHC binding, purified MHC/competitive/fluorescence; filed as Kd, often an IC50 or EC50 that approximates it; ≥ and ≤ were set here for values at or beyond the usual limits of such assays
# HLA-A*03:01 = test: as above; settings: source organism: Bacillus anthracis str. Tsiankovskii-I
# HLA-B*15:03 = test: IEDB peptide-MHC binding, purified MHC/competitive/radioactivity; filed as Kd, often an IC50 or EC50 that approximates it; ≥ and ≤ were set here for values at or beyond the usual limits of such assays; settings: source organism: Vaccinia virus WR
# HLA-B*40:02 = test: as above
# HLA-B*18:01 = test: as above
# HLA-B*45:01 = test: as above
# HLA-B*44:02 = test: as above
# HLA-B*44:03 = test: as above
# HLA-B*40:01 = test: as above
# HLA-A*02:01 = test: as above
# HLA-A*11:01 = test: IEDB peptide-MHC binding, purified MHC/direct/fluorescence; filed as Kd, often an IC50 or EC50 that approximates it; ≥ and ≤ were set here for values at or beyond the usual limits of such assays
# HLA-A*32:01 = test: IEDB peptide-MHC binding, purified MHC/competitive/radioactivity; filed as Kd, often an IC50 or EC50 that approximates it; ≥ and ≤ were set here for values at or beyond the usual limits of such assays; settings: source organism: Vaccinia virus WR
# HLA-B*08:01 = test: as above; settings: source organism: Vaccinia virus WR
# [1] = source organism: Lymphocytic choriomeningitis virus (strain Armstrong)
# [2] = source organism: Mammarenavirus brazilense
# [3] = source organism: Yellow fever virus 1899/81
# [4] = source organism: SARS coronavirus Tor2
# [5] = source organism: Mammarenavirus lassaense
sequence,measurement,setting,value
IISYFIFNR,Kd,HLA-A*31:01; source organism: Bacillus anthracis str. Tsiankovskii-I,22.5 nM
same,Kd,HLA-A*03:01,304 nM
VQSFKINIF,Kd,HLA-B*15:03,51.3 nM
SENDWFSCM,Kd,HLA-B*40:02; [1],164 nM
same,Kd,HLA-B*18:01; [1],185 nM
same,Kd,HLA-B*45:01; [1],117 nM
same,Kd,HLA-B*44:02; [1],21.1 nM
same,Kd,HLA-B*44:03; [1],22.2 nM
same,Kd,HLA-B*40:01; [1],1400 nM
VLKGLYNFA,Kd,HLA-A*02:01; source organism: Lassa virus Josiah,6250 nM
EELSTLYEAL,Kd,HLA-B*40:02; [2],121 nM
same,Kd,HLA-B*18:01; [2],371 nM
same,Kd,HLA-B*45:01; [2],2080 nM
same,Kd,HLA-B*44:02; [2],1890 nM
same,Kd,HLA-B*44:03; [2],595 nM
same,Kd,HLA-B*40:01; [2],1260 nM
GTHPFSRIR,Kd,HLA-A*11:01; [3],326 nM
same,Kd,HLA-A*31:01; [3],6 nM
VVYIILAPK,Kd,HLA-A*11:01; source organism: Mycobacterium tuberculosis,27.4 nM
same,Kd,HLA-A*31:01; source organism: Mycobacterium leprae,300 nM
LSISCPNSL,Kd,HLA-B*15:03,256 nM
SQRFIFNII,Kd,HLA-B*15:03,299 nM
same,Kd,HLA-A*32:01,1870 nM
same,Kd,HLA-B*08:01,653 nM
GEILLLEWLA,Kd,HLA-B*40:02; [4],16400 nM
same,Kd,HLA-B*18:01; [4],4670 nM
same,Kd,HLA-B*45:01; [4],17.2 nM
same,Kd,HLA-B*44:02; [4],610 nM
same,Kd,HLA-B*44:03; [4],110 nM
same,Kd,HLA-B*40:01; [4],20.3 nM
LMWITQCFL,Kd,HLA-A*02:01; source organism: Homo sapiens,78 nM
MKITRPRHF,Kd,HLA-B*15:03,1.04 nM
SEAQMSIQLI,Kd,HLA-B*40:02; [5],936 nM
same,Kd,HLA-B*18:01; [5],13900 nM
same,Kd,HLA-B*45:01; [5],997 nM
same,Kd,HLA-B*44:02; [5],30.4 nM
same,Kd,HLA-B*44:03; [5],235 nM
same,Kd,HLA-B*40:01; [5],1800 nM

# Source: the Immune Epitope Database (IEDB)
